What was measured:
[1] = system: phage clone B49 (SEQ ID NO:1)
[2] = system: synthesized polypeptide C9 (SEQ ID NO:10)
[3] = system: synthesized polypeptide A34 (SEQ ID NO:11)
[4] = system: phage clone A9 (SEQ ID NO:19)
[5] = system: phage clone C5 (SEQ ID NO:18)
[6] = system: phage clone B79 (SEQ ID NO:5)
[7] = system: phage clone B66 (SEQ ID NO:6)
[8] = system: phage clone B46 (SEQ ID NO:7)
[9] = system: phage clone A45 (SEQ ID NO:25)
[10] = system: phage clone A4 (SEQ ID NO:21)
[11] = system: synthesized polypeptide A13 (SEQ ID NO:12)
[12] = system: phage clone D3 (SEQ ID NO:23)
[13] = system: phage clone A29 (SEQ ID NO:27)
[14] = system: variants of three peptides synthesized to contain a Pro at P3
[15] = system: synthesized polypeptide A21 (SEQ ID NO:17)
[16] = system: phage clone A13 (SEQ ID NO:12)
[17] = system: phage clone A10 (SEQ ID NO:26)
[18] = system: phage clone B37 (SEQ ID NO:13)
[19] = system: phage clone C9 (SEQ ID NO:10)
[20] = system: phage clone A6 (SEQ ID NO:9), MMP-2 substrate
[21] = system: synthesized polypeptide A3 (SEQ ID NO:24)
[22] = system: synthesized polypeptide B74 (SEQ ID NO:2)
[23] = system: synthesized polypeptide B37 (SEQ ID NO:13)
[24] = system: phage clone A43 (SEQ ID NO:8)
[25] = system: phage clone A3 (SEQ ID NO:24)
[26] = system: phage clone A54 (SEQ ID NO:4)
[27] = system: phage clone C3 (SEQ ID NO:16)
[28] = system: phage clone A34 (SEQ ID NO:11)
[29] = system: phage clone B53 (SEQ ID NO:15)
[30] = system: phage clone A31 (SEQ ID NO:14)
[31] = system: phage clone A54 (SEQ ID NO:3)
[32] = system: phage clone A21 (SEQ ID NO:20)
[33] = system: synthesized polypeptide B49 (SEQ ID NO:1)
[34] = system: phage clone C6 (SEQ ID NO:22)
[35] = system: phage clone A21 (SEQ ID NO:17)
[36] = system: phage clone B74 (SEQ ID NO:2)
[37] = system: phage clone D36 (SEQ ID NO:32)
[38] = system: synthesized polypeptide C15 (contains SEQ ID NO:28)
[39] = system: mutant peptide A11m2 (AC-SGKIPRTATA-NH2, SEQ ID NO:126)
[40] = system: phage clone A11 (SEQ ID NO:29)
[41] = system: synthesized polypeptide A6 (contains SEQ ID NO:30)
[42] = system: phage clone C15 (SEQ ID NO:28)
[43] = system: the peptides (MMP-9 substrate peptides of Example III)
[44] = system: phage clone D12 (SEQ ID NO:31)
[45] = system: phage clone A6 (SEQ ID NO:30), MMP-9 substrate
[46] = system: phage clone D5 (SEQ ID NO:34)
[47] = system: synthesized polypeptide A11 (contains SEQ ID NO:29)
[48] = system: phage clone D24 (SEQ ID NO:33)
[49] = system: phage clone D17 (SEQ ID NO:35)

Chain of MMP-9 (recombinant catalytic domain, APMA-activated) (chain, as listed by the source): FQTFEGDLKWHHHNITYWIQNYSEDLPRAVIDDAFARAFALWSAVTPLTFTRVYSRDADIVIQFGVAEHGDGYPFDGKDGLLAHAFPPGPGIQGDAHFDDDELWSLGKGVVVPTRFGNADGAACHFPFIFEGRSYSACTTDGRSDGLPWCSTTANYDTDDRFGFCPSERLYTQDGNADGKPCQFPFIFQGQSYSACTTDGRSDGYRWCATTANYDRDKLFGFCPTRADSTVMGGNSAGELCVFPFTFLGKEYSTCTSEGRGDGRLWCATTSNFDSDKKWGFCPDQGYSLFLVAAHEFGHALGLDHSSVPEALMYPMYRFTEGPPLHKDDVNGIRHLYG
Chain of MMP-2 (recombinant catalytic domain, APMA-activated) (chain, as listed by the source): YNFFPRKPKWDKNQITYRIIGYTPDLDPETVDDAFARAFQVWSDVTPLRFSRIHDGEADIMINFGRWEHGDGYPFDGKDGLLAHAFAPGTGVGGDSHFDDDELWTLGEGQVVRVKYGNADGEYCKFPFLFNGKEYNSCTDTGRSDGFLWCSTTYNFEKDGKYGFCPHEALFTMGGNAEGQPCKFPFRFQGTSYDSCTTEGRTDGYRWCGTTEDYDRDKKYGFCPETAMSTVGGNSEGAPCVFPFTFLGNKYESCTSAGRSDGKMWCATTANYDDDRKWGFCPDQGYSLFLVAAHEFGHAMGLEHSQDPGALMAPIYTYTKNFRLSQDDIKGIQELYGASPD

Question: “MMP-2 (recombinant catalytic domain, APMA-activated)” was tested. Which % hydrolysis (substrate phage ELISA) [1] did it give?
Answer: 100%

Question: What about the selectivity ratio: kcat/Km for MMP-2 divided by kcat/Km for MMP-7 [2] of the same substance?
Answer: 35

Question: And the selectivity ratio: kcat/Km for MMP-2 divided by kcat/Km for MMP-9 [2]?
Answer: 198

Question: And the selectivity ratio: kcat/Km for MMP-2 divided by kcat/Km for MMP-13 [2]?
Answer: 52

Question: And the selectivity ratio: kcat/Km for MMP-2 divided by kcat/Km for MMP-7 [3]?
Answer: 84

Question: What about the selectivity ratio: kcat/Km for MMP-2 divided by kcat/Km for MMP-9 [3] of the same substance?
Answer: 40

Question: What about the selectivity ratio: kcat/Km for MMP-2 divided by kcat/Km for MMP-13 [3] of the same substance?
Answer: 24

Question: What about the % hydrolysis (substrate phage ELISA) [4] of the same substance?
Answer: 50%

Question: What about the % hydrolysis (substrate phage ELISA) [5] of the same substance?
Answer: 60%

Question: And the % hydrolysis (substrate phage ELISA) [6]?
Answer: 64%

Question: What about the % hydrolysis (substrate phage ELISA) [7] of the same substance?
Answer: 51%

Question: What about the % hydrolysis (substrate phage ELISA) [8] of the same substance?
Answer: 48%

Question: What about the % hydrolysis (substrate phage ELISA) [9] of the same substance?
Answer: 100%

Question: And the % hydrolysis (substrate phage ELISA) [10]?
Answer: 30%

Question: What about the selectivity ratio: kcat/Km for MMP-2 divided by kcat/Km for MMP-7 [11] of the same substance?
Answer: 13

Question: What about the selectivity ratio: kcat/Km for MMP-2 divided by kcat/Km for MMP-9 [11] of the same substance?
Answer: 15

Question: What about the selectivity ratio: kcat/Km for MMP-2 divided by kcat/Km for MMP-13 [11] of the same substance?
Answer: 28

Question: And the % hydrolysis (substrate phage ELISA) [12]?
Answer: 13%

Question: And the % hydrolysis (substrate phage ELISA) [13]?
Answer: 100%

Question: What about the “peptide hydrolysis (kcat/Km), compared with MMP-9” value [14] of the same substance?
Answer: the proline-containing peptides remained better substrates for MMP-2 (data not shown)

Question: What about the selectivity ratio: kcat/Km for MMP-2 divided by kcat/Km for MMP-9 [15] of the same substance?
Answer: 8

Question: And the % hydrolysis (substrate phage ELISA) [16]?
Answer: 100%

Question: What about the % hydrolysis (substrate phage ELISA) [17] of the same substance?
Answer: 80%

Question: What about the % hydrolysis (substrate phage ELISA) [18] of the same substance?
Answer: 97%

Question: And the % hydrolysis (substrate phage ELISA) [19]?
Answer: 100%

Question: And the % hydrolysis (substrate phage ELISA) [20]?
Answer: 30%

Question: What about the selectivity ratio: kcat/Km for MMP-2 divided by kcat/Km for MMP-7 [21] of the same substance?
Answer: 21

Question: What about the selectivity ratio: kcat/Km for MMP-2 divided by kcat/Km for MMP-9 [21] of the same substance?
Answer: 2

Question: What about the selectivity ratio: kcat/Km for MMP-2 divided by kcat/Km for MMP-13 [21] of the same substance?
Answer: 14

Question: And the selectivity ratio: kcat/Km for MMP-2 divided by kcat/Km for MMP-7 [22]?
Answer: 354

Question: What about the selectivity ratio: kcat/Km for MMP-2 divided by kcat/Km for MMP-9 [22] of the same substance?
Answer: 108

Question: And the selectivity ratio: kcat/Km for MMP-2 divided by kcat/Km for MMP-13 [22]?
Answer: 140

Question: What about the selectivity ratio: kcat/Km for MMP-2 divided by kcat/Km for MMP-7 [23] of the same substance?
Answer: 17

Question: What about the selectivity ratio: kcat/Km for MMP-2 divided by kcat/Km for MMP-9 [23] of the same substance?
Answer: 71

Question: What about the selectivity ratio: kcat/Km for MMP-2 divided by kcat/Km for MMP-13 [23] of the same substance?
Answer: 58

Question: What about the % hydrolysis (substrate phage ELISA) [24] of the same substance?
Answer: 38%

Question: And the % hydrolysis (substrate phage ELISA) [25]?
Answer: 100%

Question: What about the % hydrolysis (substrate phage ELISA) [26] of the same substance?
Answer: 72%

Question: And the % hydrolysis (substrate phage ELISA) [27]?
Answer: 28%

Question: What about the % hydrolysis (substrate phage ELISA) [28] of the same substance?
Answer: 100%

Question: What about the % hydrolysis (substrate phage ELISA) [29] of the same substance?
Answer: 73%

Question: And the % hydrolysis (substrate phage ELISA) [30]?
Answer: 100%

Question: What about the % hydrolysis (substrate phage ELISA) [31] of the same substance?
Answer: 98%

Question: What about the % hydrolysis (substrate phage ELISA) [32] of the same substance?
Answer: 30%

Question: And the selectivity ratio: kcat/Km for MMP-2 divided by kcat/Km for MMP-7 [33]?
Answer: 6

Question: What about the selectivity ratio: kcat/Km for MMP-2 divided by kcat/Km for MMP-9 [33] of the same substance?
Answer: 14

Question: And the selectivity ratio: kcat/Km for MMP-2 divided by kcat/Km for MMP-13 [33]?
Answer: 13

Question: What about the % hydrolysis (substrate phage ELISA) [34] of the same substance?
Answer: 19%

Question: And the % hydrolysis (substrate phage ELISA) [35]?
Answer: 30%

Question: What about the % hydrolysis (substrate phage ELISA) [36] of the same substance?
Answer: 81%

Question: For “MMP-9 (recombinant catalytic domain, APMA-activated)”, which % hydrolysis (substrate phage ELISA) [37] is on record?
Answer: 91%

Question: And the selectivity ratio: kcat/Km for MMP-9 divided by kcat/Km for MMP-7 [38]?
Answer: 14

Question: And the selectivity ratio: kcat/Km for MMP-9 divided by kcat/Km for MMP-13 [38]?
Answer: 12

Question: And the “fold reduction of kcat/Km relative to peptide A11” value [39]?
Answer: reduced kcat/Km ratio nearly 30-fold

Question: What about the kcat/Km ratio [39] of the same substance?
Answer: measurable kcat/Km ratio (2,000M^-1s^-1)

Question: And the % hydrolysis (substrate phage ELISA) [40]?
Answer: 100%

Question: What about the selectivity ratio: kcat/Km for MMP-9 divided by kcat/Km for MMP-7 [41] of the same substance?
Answer: 47

Question: And the selectivity ratio: kcat/Km for MMP-9 divided by kcat/Km for MMP-13 [41]?
Answer: 5

Question: And the “fold increase of the kcat/Km ratio on inclusion of Pro at P3” value [14]?
Answer: increased the kcat/Km ratio for MMP-9 between three and eleven-fold

Question: What about the % hydrolysis (substrate phage ELISA) [42] of the same substance?
Answer: 100%

Question: And the “Km (Michaelis constant)” value [43]?
Answer: Km values were generally in the high micromolar to low millimolar range

Question: What about the “kcat (first-order rate constant of substrate peptide turnover)” value [43] of the same substance?
Answer: the kcat values ranged from 9 s^-1 to 703 s^-1

Question: What about the “kcat/Km ratio for MMP-9 over that for MMP-7 or MMP-13” value [43] of the same substance?
Answer: The kcat/Km ratios ranged from 2.6 to 47 fold higher for MMP-9 than for either MMP-7 or MMP-13

Question: And the % hydrolysis (substrate phage ELISA) [44]?
Answer: 100%

Question: And the % hydrolysis (substrate phage ELISA) [45]?
Answer: 100%

Question: What about the kcat/Km relative to the parent peptide A11 (mutant peptide A11m1) of the same substance?
Answer: 2 fold

Question: What about the % hydrolysis (substrate phage ELISA) [46] of the same substance?
Answer: 60%

Question: What about the selectivity ratio: kcat/Km for MMP-9 divided by kcat/Km for MMP-7 [47] of the same substance?
Answer: 10

Question: And the selectivity ratio: kcat/Km for MMP-9 divided by kcat/Km for MMP-13 [47]?
Answer: 3

Question: What about the % hydrolysis (substrate phage ELISA) [48] of the same substance?
Answer: 85%

Question: And the % hydrolysis (substrate phage ELISA) [49]?
Answer: 67%

From patent US20040053823
